Reference: article PMC6720452, “Structural Basis for Recruitment of DAPK1 to the KLHL20 E3 Ligase” (Structure(London, England:1993), 2019)

B1: DAPK1 WT: full-length HA-DAPK1 wild-type (protein)
chain: MTVFRQENVDDYYDTGEELGSGQFAVVKKCREKSTGLQYAAKFIKKRRTKSSRRGVSREDIEREVSILKEIQHPNVITLHEVYENKTDVILILELVAGGELFDFLAEKESLTEEEATEFLKQILNGVYYLHSLQIAHFDLKPENIMLLDRNVPKPRIKIIDFGLAHKIDFGNEFKNIFGTPEFVAPEIVNYEPLGLEADMWSIGVITYILLSGASPFLGDTKQETLANVSAVNYEFEDEYFSNTSALAKDFIRRLLVKDPKKRMTIQDSLQHPWIKPKDTQQALSRKASAVNMEKFKKFAARKKWKQSVRLISLCQRLSRSFLSRSNMSVARSDDTLDEEDSFVMKAIIHAINDDNVPGLQHLLGSLSNYDVNQPNKHGTPPLLIAAGCGNIQILQLLIKRGSRIDVQDKGGSNAVYWAARHGHVDTLKFLSENKCPLDVKDKSGEMALHVAARYGHADVAQLLCSFGSNPNIQDKEEETPLHCAAWHGYYSVAKALCEAGCNVNIKNREGETPLLTASARGYHDIVECLAEHGADLNACDKDGHIALHLAVRRCQMEVIKTLLSQGCFVDYQDRHGNTPLHVACKDGNMPIVVALCEANCNLDISNKYGRTPLHLAANNGILDVVRYLCLMGASVEALTTDGKTAEDLARSEQHEHVAGLLARLRKDTHRGLFIQQLRPTQNLQPRIKLKLFGHSGSGKTTLVESLKCGLLRSFFRRRRPRLSSTNSSRFPPSPLASKPTVSVSINNLYPGCENVSVRSRSMMFEPGLTKGMLEVFVAPTHHPHCSADDQSTKAIDIQNAYLNGVGDFSVWEFSGNPVYFCCYDYFAANDPTSIHVVVFSLEEPYEIQLNQVIFWLSFLKSLVPVEEPIAFGGKLKNPLQVVLVATHADIMNVPRPAGGEFGYDKDTSLLKEIRNRFGNDLHISNKLFVLDAGASGSKDMKVLRNHLQEIRSQIVSVCPPMTHLCEKIISTLPSWRKLNGPNQLMSLQQFVYDVQDQLNPLASEEDLRRIAQQLHSTGEINIMQSETVQDVLLLDPRWLCTNVLGKLLSVETPRALHHYRGRYTVEDIQRLVPDSDVEELLQILDAMDICARDLSSGTMVDVPALIKTDNLHRSWADEEDEVMVYGGVRIVPVEHLTPFPCGIFHKVQVNLCRWIHQQSTEGDADIRLWVNGCKLANRGAELLVLLVNHGQGIEVQVRGLETEKIKCCLLLDSVCSTIENVMATTLPGLLTVKHYLSPQQLREHHEPVMIYQPRDFFRAQTLKETSLTNTMGGYKESFSSIMCFGCHDVYSQASLGMDIHASDLNLLTRRKLSRLLDPPDPLGKDWCLLAMNLGLPDLVAKYNTSNGAPKDFLPSPLHALLREWTTYPESTVGTLMSKLRELGRRDAADFLLKASSVFKINLDGNGQEAYASSCNSGTSYNSISSVVSR
modifications: left off: HA, N-terminal, kept
notes: full-length HA-DAPK1 wild-type
B2: DAPK1 mutant: full-length DAPK1 mutant in which the critical 1,336-“LPDLV” motif was mutated to “LPAAV” (protein)
chain: MTVFRQENVDDYYDTGEELGSGQFAVVKKCREKSTGLQYAAKFIKKRRTKSSRRGVSREDIEREVSILKEIQHPNVITLHEVYENKTDVILILELVAGGELFDFLAEKESLTEEEATEFLKQILNGVYYLHSLQIAHFDLKPENIMLLDRNVPKPRIKIIDFGLAHKIDFGNEFKNIFGTPEFVAPEIVNYEPLGLEADMWSIGVITYILLSGASPFLGDTKQETLANVSAVNYEFEDEYFSNTSALAKDFIRRLLVKDPKKRMTIQDSLQHPWIKPKDTQQALSRKASAVNMEKFKKFAARKKWKQSVRLISLCQRLSRSFLSRSNMSVARSDDTLDEEDSFVMKAIIHAINDDNVPGLQHLLGSLSNYDVNQPNKHGTPPLLIAAGCGNIQILQLLIKRGSRIDVQDKGGSNAVYWAARHGHVDTLKFLSENKCPLDVKDKSGEMALHVAARYGHADVAQLLCSFGSNPNIQDKEEETPLHCAAWHGYYSVAKALCEAGCNVNIKNREGETPLLTASARGYHDIVECLAEHGADLNACDKDGHIALHLAVRRCQMEVIKTLLSQGCFVDYQDRHGNTPLHVACKDGNMPIVVALCEANCNLDISNKYGRTPLHLAANNGILDVVRYLCLMGASVEALTTDGKTAEDLARSEQHEHVAGLLARLRKDTHRGLFIQQLRPTQNLQPRIKLKLFGHSGSGKTTLVESLKCGLLRSFFRRRRPRLSSTNSSRFPPSPLASKPTVSVSINNLYPGCENVSVRSRSMMFEPGLTKGMLEVFVAPTHHPHCSADDQSTKAIDIQNAYLNGVGDFSVWEFSGNPVYFCCYDYFAANDPTSIHVVVFSLEEPYEIQLNQVIFWLSFLKSLVPVEEPIAFGGKLKNPLQVVLVATHADIMNVPRPAGGEFGYDKDTSLLKEIRNRFGNDLHISNKLFVLDAGASGSKDMKVLRNHLQEIRSQIVSVCPPMTHLCEKIISTLPSWRKLNGPNQLMSLQQFVYDVQDQLNPLASEEDLRRIAQQLHSTGEINIMQSETVQDVLLLDPRWLCTNVLGKLLSVETPRALHHYRGRYTVEDIQRLVPDSDVEELLQILDAMDICARDLSSGTMVDVPALIKTDNLHRSWADEEDEVMVYGGVRIVPVEHLTPFPCGIFHKVQVNLCRWIHQQSTEGDADIRLWVNGCKLANRGAELLVLLVNHGQGIEVQVRGLETEKIKCCLLLDSVCSTIENVMATTLPGLLTVKHYLSPQQLREHHEPVMIYQPRDFFRAQTLKETSLTNTMGGYKESFSSIMCFGCHDVYSQASLGMDIHASDLNLLTRRKLSRLLDPPDPLGKDWCLLAMNLGLPAAVAKYNTSNGAPKDFLPSPLHALLREWTTYPESTVGTLMSKLRELGRRDAADFLLKASSVFKINLDGNGQEAYASSCNSGTSYNSISSVVSR
modifications: left off: HA, N-terminal, kept

Columns and labels:
FLAG-KLHL20 Kelch domain = assay: Co-immunoprecipitation of KLHL20 and DAPK1 in HEK293T cells; assay type: cell-based, human; details: FLAG-KLHL20 Kelch domain and HA-DAPK1 full-length co-transfected, 40 hours after transfection, anti-FLAG IP, Western blot
From the text: (§1) To confirm the identified “LPDLV” motif as a regulatory site for DAPK1 interaction and degradation, we performed immunoprecipitation and cycloheximide (CHX) chase experiments in HEK293T cells. […] We then performed a CHX chase assay to compare the degradation of DAPK1 variants in the presence or absence of full-length KLHL20.
Figure 6 Mutations in the DAPK1 “LPDLV” Motif Impair DAPK1 Binding and Degradation by KLHL20 (A) Full-length DAPK1 variants and KLHL20 Kelch domain were co-transfected into HEK293T cells as indicated. FLAG-KLHL20 Kelch domain was immunoprecipitated (IP) with anti-FLAG antibody. DAPK1 WT was robustly co-purified with KLHL20, whereas DAPK1 mutant was only recovered at the background level of the beads alone. (B) DAPK1 variants were transfected into HEK293T cells with or without full-length KLHL20 as indicated. […] DAPK1 protein levels were detected by western blot and normalized to GAPDH. (C) Quantitation of (B). […]
HEK293T cells were cultured in high glucose Dulbecco’s Modified Eagle’s Medium (Sigma-Aldrich) with 5% Penicillin Streptomycin (ThermoFisher) and 10% Fetal Bovine Serum (Sigma-Aldrich) inside a 5% CO2 incubator at 37°C. […] Results were analyzed using Western blotting (Anti-Flag antibody, Sigma-Aldrich, F1804; Anti-HA antibody, Biolegend, 901501; Anti-Myc antibody, Cell signalling, 2040S).

full-length KLHL20 = assay: Cycloheximide chase assay in HEK293T cells; assay type: cell-based, human; details: 100 μg/mL cycloheximide, 0-6h; for Half-life / degradation of DAPK1 on KLHL20 co-expression: with vs without full-length KLHL20, Western blot normalized to GAPDH
From the text: as §1
Figure 6 Mutations in the DAPK1 “LPDLV” Motif Impair DAPK1 Binding and Degradation by KLHL20 (A) Full-length DAPK1 variants and KLHL20 Kelch domain were co-transfected into HEK293T cells as indicated. FLAG-KLHL20 Kelch domain was immunoprecipitated (IP) with anti-FLAG antibody. DAPK1 WT was robustly co-purified with KLHL20, whereas DAPK1 mutant was only recovered at the background level of the beads alone. (B) DAPK1 variants were transfected into HEK293T cells with or without full-length KLHL20 as indicated. At 24 h post transfection, cells were incubated with 100 μg/mL cycloheximide (CHX) and harvested at different time points as indicated. DAPK1 protein levels were detected by western blot and normalized to GAPDH. (C) Quantitation of (B).
For structural and biophysical studies, the Kelch domains of human KLHL20 (Uniprot Q9Y2M5 isoform 1, M303-E605) and KLHL3 (Uniprot Q9UH77 isoform 1, residues S298–L587) were cloned using ligation-independent cloning into the bacterial expression vector pNIC28-Bsa4 (GenBank accession number EF198106), which provides for an N-terminal hexahistidine tag and TEV cleavage site. For cellular assays, full length DAPK1 was cloned into pcDNA3.1(+) providing an N-terminal HA tag. The mutant DAPK1 (1336-‘LPDLV’ motif mutated to ‘LPAAV’) was created in the same vector by site directed mutagenesis. […]
HEK293T cells were cultured as described above until 60% confluency. […] Results were analyzed using Western blotting with corresponding antibodies. GAPDH level in each sample was also detected for control (anti-GAPDH antibody; Thermo Fisher, MA5-15738). Western blot band intensities were quantified using Image Studio Lite Ver 5.2 and normalized for the GADPH control.

| Molecule | Recovery of DAPK1 in KLHL20 immunoprecipitation (FLAG-KLHL20 Kelch domain) | Half-life / degradation of DAPK1 on KLHL20 co-expression (full-length KLHL20) | Half-life of DAPK1 mutant compared with DAPK1 WT (full-length KLHL20; with or without full-length KLHL20, Western blot normalized to GAPDH) |
| --- | --- | --- | --- |
| B1 | robustly bound to KLHL20 | striking reduction in the half-life | – |
| B2 | only recovered at a low background level | strikingly resistant to KLHL20 co-expression | exceeded that of DAPK1 WT under any of the conditions above |
